Assay: yeast display, Sf9 membrane polyspecificity reagent, FACS + sequencing; frameworks hold sequencing errors
Summary of the method: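 Using colony PCR, genes from sorted yeast display clones were amplified, then sequenced on MiSeq at 2 × 250 and filtered by CDR length. The clones had been stained with 10% biotinylated, detergent-solubilized Sf9 membrane reagent for 1 hour at 4 °C and sorted by FACS into low and high (top ~1%) gates on anti-HA and streptavidin fluorescence. Polyreactivity labels come from the gate of origin.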

QVQLVESGGGLVQAGGSLRLSCAASGLTFYAYAMGWYRQAPGKERELVAHISWTGTTTYYADSVKGRFTISRDNAKNTVYLQMNSLKPEDTAVYYCAALIYRYAVAPPGYQYWLYYWGQGTLVTVSS
polyreactivity (PSR sort gate): low polyreactivity

QVQLVESGGGLVQAGGSLRLSCAASGLTFYDYAMGWYRQAPGKERELVADIDFNGGSTSYADSVKGRFTISRDNAKNTVYLQMNSLKREDTAVYYCNTRDRGDVVTGLDYWGQGTQVTVSS
polyreactivity (PSR sort gate): low polyreactivity

QVQLVESGGGLVQAGGSLRLSCAASGLTFYGNAMGWYRQAPGKERELVAAITSNGGSTYYADSVKGRFTISRDNAKNTVYLQMISLKPEDTAVYYCNVDTGYDYWYPGYGYWGQGTQVTVSS
polyreactivity (PSR sort gate): low polyreactivity

QVQLVESGGGLVQAGGSLRLSCAASGLTFYGYAMGWYRQAPGKERELVAAIRWSGGRTYYADSVKGRFTISRDNAKNTVYLQMNSLKPEDTAVYYCAADYRRYYGGDYWGQGTQVTVSS
polyreactivity (PSR sort gate): low polyreactivity

QVQLVESGGGLVQAGGSLRLSCAASGLTFYINDMGWYRQAPGKERELVAAITRGGSTNYADSVKGRLTISRDNAKNTVYLQMNSLKPEDTAVYYCAAGARYGYGYWGHGTQVTVSS
polyreactivity (PSR sort gate): high polyreactivity

QVQLVESGGGLVQAGGSLRLSCAASGLTFYKNAMGWYRQAPGKVRELVAVISSSGGSTYYADSVKGRFTISRDKAKNTVYLQMNSLKPEDTAVYYCARDLYTEYRWGRLTYDYWGQGTQVTVSS
polyreactivity (PSR sort gate): low polyreactivity

QVQLVESGGGLVQAGGSLRLSCAASGLTFYLYAMGWYRQAPGKERELVAAISRSGGSTYYADSVKGRFTISRDNAKNTVYVQMYSLKPEDTAVYYCAAVTYYPEIRKYYDWRQGTQVTVSS
polyreactivity (PSR sort gate): high polyreactivity

QVQLVESGGGLVQAGGSLRLSCAASGLTFYNNAMGWYRQAPGKERELVARISSGGSTYYADSVKGRFTISRDNAKNTVYLQMNSLKPEDTAVYYCAAGRGYWWWYGYDYWGQGTQVTVSS
polyreactivity (PSR sort gate): low polyreactivity

QVQLVESGGGLVQAGGSLRLSCAASGLTFYPYTMGWYRQAPGKERELVAAISSGGSTYYADSVKGRFTISRDNAKNTVYLQMNSLKPEDTAVYYCAARYPYFSYGYWGQGTQVTVSS
polyreactivity (PSR sort gate): high polyreactivity

QVQLVESGGGLVQAGGSLRLSCAASGLTFYQYALGWSRQAPGNDREWVAAITRGGTTNYADSVKGRFTISRDNAKNTVYLQMNSLKPEDTAVYYCNKGLVFDGYDYWGQGTQVTVSS
polyreactivity (PSR sort gate): high polyreactivity

QVQLVESGGGLVQAGGSLRLSCAASGLTFYQYAMGWYRQAPGKERELVAAISQSAGSTYYADSVKGRFTISRDNAKNTVYLQMNSLKPEDTAVYYCAARVLRLRYDYWGQGTQVTVSS
polyreactivity (PSR sort gate): high polyreactivity

QVQLVESGGGLVQAGGSLRLSCAASGLTFYRNVMGWYRQAPGKERELVAVITSGGRTNYADSVKGRFTISRDNAKNTVYLQMNSLKPEDTAVYYCNTALSSRSNKMYYWGQGTQVTVSS
polyreactivity (PSR sort gate): high polyreactivity

QVQLVESGGGLVQAGGSLRLSCAASGLTFYRYTMGWYRQAPGKERELVAAIRSSGGRTYYADSVKGRFTISRDNAKNTVYLQKNSLKPEDTAVYYCNAVRYNSVGYVYWGQGTQVTVSS
polyreactivity (PSR sort gate): high polyreactivity

QVQLVESGGGLVQAGGSLRLSCAASGLTFYSNAMRWYRQAPGKEREVVARISTGGSTYADSVKGRFTISRDNAKKTVYLQMNSLKPQDTEVYYCAKLPPRGIDDEYWGQGTQVTVSS
polyreactivity (PSR sort gate): low polyreactivity

QVQLVESGGGLVQAGGSLRLSCAASGLTFYSYAMGWYRQAPGKERELVAAISKSGGSTYYADSVKGRFTISRDNAKNSVYLQMNSLKPEDTAVYYCNALTKTGTPPDYDYWGQGTQVTVSS
polyreactivity (PSR sort gate): high polyreactivity

QVQLVESGGGLVQAGGSLRLSCAASGLTFYSYAMGWYSPAPGKERELVAAITSSGSITYYADSVKGRFTISRDNAKNTVYLQMNSLKPEDTAVYYCAARPYRVRGQRFEGNYWGQGTQVTVSS
polyreactivity (PSR sort gate): high polyreactivity

QVQLVESGGGLVQAGGSLRLSCAASGLTFYTYAMGWYRQAPGKERELVAAISSGGSTNYADSVKGRFTISRDNAKNTVYLQMNSLKPEDTAVYYCAADPSYYTYFSFDLSESDYWGLGTQVTVSS
polyreactivity (PSR sort gate): low polyreactivity

QVQLVESGGGLVQAGGSLRLSCAASGLTFYTYAMGWYRQAPGKERELVAAITYSGGRTSYADSVKGRFTISRDNAKNTVYLQMNSLKPEDTAVYYCAARTLGRRLDYGYWGQGTQVTVSS
polyreactivity (PSR sort gate): low polyreactivity

QVQLVESGGGLVQAGGSLRLSCAASGLTFYVNAMGWYRQAPGKEMELVAAITRGGSTNYADSVKGRFTISRDNAKNTVYLQMNSLKPVDTAVYYCNARKRYHSRYSGGYREGYWGQGTQVTVSS
polyreactivity (PSR sort gate): low polyreactivity

QVQLVESGGGLVQAGGSLRLSCAASGLTFYVYAMGWYRQAPGKERELVAAISGRGGRTYYADSVKGRLTISRDNAKNTVYLQMNSLKPEDTAVYYCNRDYAVFSYGEYDSWGQGTQVTVSS
polyreactivity (PSR sort gate): high polyreactivity

QVQLVESGGGLVQAGGSLRLSCAASGLTFYVYAMGWYRQAPGKERELVAAISSGGRTYYADSVKGRFTISRDNAKNTVYLQMNSLKPEDTAVYFCAAVRHRNYGYWGQGTQVTVSS
polyreactivity (PSR sort gate): high polyreactivity

QVQLVESGGGLVQAGGSLRLSCAASGLTFYVYAMGWYRQAPGKERELVAAISSGGRTYYADSVKGRFTISRDNAKNTVYLQMTSLKPEDTAVYYCAAVRHRNYGYWGQGTQVTVSS
polyreactivity (PSR sort gate): high polyreactivity

QVQLVESGGGLVQAGGSLRLSCAASGLTFYYYAMGWYRQAPGKERELVAAISATGGRTDYADSVKGRFTISRDNAKNTVYLQMNSLKPADPAVYYCAADTPYLRRRRGMDYWGQGTQVTVSS
polyreactivity (PSR sort gate): high polyreactivity

QVQLVESGGGLVQAGGSLRLSCAASGLTFYYYAMGWYRQAPGKERELVAAITGSGGRTSYADSVKGRFTISRDNAKNTVYLQMNSLKPEDTAVYYCAARNKRRGYPWQGQQKVLNFDYWGQGTQVTVSS
polyreactivity (PSR sort gate): high polyreactivity

QVQLVESGGGLVQAGGSLRLSCAASGLTFYYYYTMGWYRQAPGKERELVAAISRSGSTNYADSVKGRFTISRDNAKNTVYLQMNSLKPEDTAVYYCARSYRSDGSRFGYWGQGTQVTVSS
polyreactivity (PSR sort gate): low polyreactivity

QVQLVESGGGLVQAGGSLRLSCAASGLTIFVNAMGWYRQAPGKERELVATISGGGSTYYADSVKGRFTISRDNAKNTVYLQMNSLKPEDTAVYYCNADVLFYTYYTRGRFDFDYWGQGTQVTVSS
polyreactivity (PSR sort gate): low polyreactivity

QVQLVESGGGLVQAGGSLRLSCAASGLTIKPNAMGWYRQAPGKERELVAAIDWSGGSTYCADSVKGRFTISRDNAKNTVDLQMNSLKPEDTAVYYCAADPPDRLFLYDYWGQGTQVTVSS
polyreactivity (PSR sort gate): low polyreactivity

QVQLVESGGGLVQAGGSLRLSCAASGLTIQRNDMGWYRQAPGKEREFVATITSNAGSTYYADSVKGRFTISRDNAKNPVYFQMNSLKPEDTAVYYWARERWWGGSDYWGQGTQVTVSS
polyreactivity (PSR sort gate): high polyreactivity

QVQLVESGGGLVQAGGSLRLSCAASGLTIQYNAMVWYRQAPGKERELVAAISRSGGSTYYADSVKGRFTISRDNAKNTEYLQMISLKPEDTAVYYCNKVSPYRGYYWGQGTQVTVSS
polyreactivity (PSR sort gate): high polyreactivity

QVQLVESGGGLVQAGGSLRLSCAASGLTISTNAMGWYRQAPGKERELVAAISRAGSTYYADSVKGRFTISRDNAKNTVYLQMNSLKPEDTAVYYCAAKYRYSTYHRGSFNFWGQGTQVTVSS
polyreactivity (PSR sort gate): high polyreactivity

QVQLVESGGGLVQAGGSLRLSCAASGLTISWNAMGWYRQAPGKERELVAAISSRGGSTYYADSVKGRFKISRDNAKNTVYLQMNSLKPEDTAVYYCAAEGYTYYPVYSTRMYYWGQGTQVTVSS
polyreactivity (PSR sort gate): low polyreactivity

QVQLVESGGGLVQAGGSLRLSCAASGLTISYYAMGRYRQAPGKERELVAAISTDSSTNYADSVKGRFTISRDNAKNTVYLQMNSLKPEDTAVYYCAAVPRGTQCAMDYWGQGTQVTVSS
polyreactivity (PSR sort gate): low polyreactivity

QVQLVESGGGLVQAGGSLRLSCAASGLTITSNAMGWYRQAPGKERELVASITWSGGSTSYADSVKGRFTISRDNAKNTVYLQMNSLKPEDTAVYDCAADRQRSHRVGTKGHRVGYWGQGTQVTVSS
polyreactivity (PSR sort gate): high polyreactivity

QVQLVESGGGLVQAGGSLRLSCAASGLTIWKYTMGWYRQAPGKERELVAAISISGTNTYYADSVKGRFTISRDNAKNTVYLQMNSLKPEDTAVYYCAAVRGYPPTNYYYWGQGTQVSVSS
polyreactivity (PSR sort gate): high polyreactivity

QVQLVESGGGLVQAGGSLRLSCAASGLTIYAYAMGWYRQAPGKERELVAIISYNGGRTYYADSVKGRFTISRDNAKNTVYLQMNSLKPEDTAVYYCAARGREVRYDYWGQGTQVTVSS
polyreactivity (PSR sort gate): high polyreactivity

QVQLVESGGGLVQAGGSLRLSCAASGLTLETNAMGWYRQAPGKERELVAGITYSGGTTYYADSVKGRFTISRDNAKNTVYLQMNSLKPEDTAVYYCNAQERRVRDYDYWGQGTEVTVSS
polyreactivity (PSR sort gate): low polyreactivity

QVQLVESGGGLVQAGGSLRLSCAASGLTLGSYALGWYRQAPGKERELVAAISRRSGRTYYADSVKGRFTISRDNAKNTVYLQMNSLKPEDTAVYYCNRGYTAQVYTEFDYWGQGTQVTVSS
polyreactivity (PSR sort gate): low polyreactivity

QVQLVESGGGLVQAGGSLRLSCAASGLTLPYNAMGSYRQAPGKERELVAAITCIGGSTYYADSVKGRFTISRDNAKNTVYLEMNSLKPEDSAVYYCAKEVRGPIIYLEGYWGQGTQVTVSS
polyreactivity (PSR sort gate): low polyreactivity

QVQLVESGGGLVQAGGSLRLSCAASGLTLSGYAMGWYRQAPGKERELVAAISSTGGSTYYADSVKGRFTISRDNAKNTVYLQMNSLKPEATAVYYCAKGYSPTRVRLRYPRYDTYNHWGQVTQVTVSS
polyreactivity (PSR sort gate): high polyreactivity

QVQLVESGGGLVQAGGSLRLSCAASGLTLSYTMGWYRQAPGKERELVASITWSGTRTYYADSVKGRFTISRDNAKNTVYLQMNSLKPEDTAVYYCARRSSYGSWGYNYWGQGTQVTVSS
polyreactivity (PSR sort gate): high polyreactivity

QVQLVESGGGLVQAGGSLRLSCAASGLTLTYYAMGWYRQAPGKERELVAAISSSGGSTYYADSVKGRFTISRDNAKNTVYLQMNSLKPEDAAVYYCAATRVSWTGRDDYWGQGTQVTVSS
polyreactivity (PSR sort gate): high polyreactivity

QVQLVESGGGLVQAGGSLRLSCAASGLTLTYYAMGWYRQAPGKERELVAAISSSGGSTYYADSVKGRFTISRDNAKNTVYLQMNSLKPEDTAVYYCAATRVSWTGRDDYWGQGTQVTVSS
polyreactivity (PSR sort gate): high polyreactivity

QVQLVESGGGLVQAGGSLRLSCAASGLTLVTIGMGWYSQAPAKERELVAAIDSTGGRTYYADSVKGRFTISRDNAKKTVYLQMTSLKPEDTAVSYCNRRWYARAAYWGQGTQVTVSS
polyreactivity (PSR sort gate): high polyreactivity
